The values that follow come from IntAct's records for PubMed 7536190.

First the molecules themselves.
B1: Tumor necrosis factor receptor superfamily member 6 (Mus musculus), P25446 (parent)
chain: MLWIWAVLPLVLAGSQLRVHTQGTNSISESLKLRRRVRETDKNCSEGLYQGGPFCCQPCQPGKKKVEDCKMNGGTPTCAPCTEGKEYMDKNHYADKCRRCTLCDEEHGLEVETNCTLTQNTKCKCKPDFYCDSPGCEHCVRCASCEHGTLEPCTATSNTNCRKQSPRNRLWLLTILVLLIPLVFIYRKYRKRKCWKRRQDDPESRTSSRETIPMNASNLSLSKYIPRIAEDMTIQEAKKFARENNIKEGKIDEIMHDSIQDTAEQKVQLLLCWYQSHGKSDAYQDLIKGLKKAECRRTLDKFQDMVQKDLGKSTPDTGNENEGQCLE

One experiment covers variants of B1. Conditions: with fadd_human FADD.
In the case of I225D, the “effect of a mutation on the interaction” value is “decreasing interaction”.

In a further experiment the parent is B1. The settings on record: with tnr6_human FAS.
Take I225D: the “effect of a mutation on the interaction” value is on record as “decreasing interaction”.
